Measurements reported in patent US20210046160A1 (Synthorx, Inc., priority 2019, published 2021).

Experiments:
[1] = target: T1, IL-2 receptor αβγ complex (Homo sapiens, UniProt P01589+P14784+P31785); assay: PathHunter IL-2 Cytokine Receptor assay, agonist mode, cell line further expressing IL-2Rα; assay type: cell-based; conditions: IL2Rα-positive U2OS cell line; 10 kD PEGylated conjugates, * = 30 kD
T1 construct: host or cells: recombinant human U2OS cell line (PathHunter), further engineered to express IL-2Rα
T1 sequence (P01589 22-272): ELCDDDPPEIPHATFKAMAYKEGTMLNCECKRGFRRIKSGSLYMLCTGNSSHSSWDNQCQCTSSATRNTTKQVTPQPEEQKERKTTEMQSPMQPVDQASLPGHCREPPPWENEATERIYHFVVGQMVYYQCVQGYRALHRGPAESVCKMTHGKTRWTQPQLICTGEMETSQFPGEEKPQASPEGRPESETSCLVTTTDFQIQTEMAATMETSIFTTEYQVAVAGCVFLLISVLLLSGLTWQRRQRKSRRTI
T1 sequence (P14784 27-551): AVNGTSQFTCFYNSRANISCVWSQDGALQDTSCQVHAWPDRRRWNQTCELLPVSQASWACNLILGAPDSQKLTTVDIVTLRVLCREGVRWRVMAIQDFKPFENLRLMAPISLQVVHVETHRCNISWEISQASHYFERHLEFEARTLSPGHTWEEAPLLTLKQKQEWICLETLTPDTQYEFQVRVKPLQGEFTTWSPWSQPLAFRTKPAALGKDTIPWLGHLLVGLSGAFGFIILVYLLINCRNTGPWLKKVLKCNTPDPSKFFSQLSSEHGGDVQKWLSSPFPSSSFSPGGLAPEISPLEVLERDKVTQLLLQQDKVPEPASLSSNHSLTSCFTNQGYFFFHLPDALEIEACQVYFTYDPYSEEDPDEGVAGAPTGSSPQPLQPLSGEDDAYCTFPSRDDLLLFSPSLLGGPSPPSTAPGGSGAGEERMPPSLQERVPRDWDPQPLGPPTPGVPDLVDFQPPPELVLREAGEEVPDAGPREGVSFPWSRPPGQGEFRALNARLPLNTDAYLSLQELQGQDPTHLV
T1 sequence (P31785 23-369): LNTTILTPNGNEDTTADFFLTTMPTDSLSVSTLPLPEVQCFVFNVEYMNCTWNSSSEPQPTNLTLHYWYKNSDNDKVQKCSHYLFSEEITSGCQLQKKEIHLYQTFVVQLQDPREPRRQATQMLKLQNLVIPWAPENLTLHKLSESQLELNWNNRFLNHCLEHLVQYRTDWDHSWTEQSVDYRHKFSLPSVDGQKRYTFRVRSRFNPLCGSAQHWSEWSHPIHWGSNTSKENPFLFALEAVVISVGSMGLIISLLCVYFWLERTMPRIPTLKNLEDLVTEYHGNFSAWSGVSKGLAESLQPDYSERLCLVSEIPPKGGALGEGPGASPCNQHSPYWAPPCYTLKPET
Method: (§1) PathHunter cell lines were expanded from freezer stocks according to standard procedures. Cells were seeded in a total volume of 20 μL into white walled, 384-well microplates and incubated for the appropriate time prior to testing.
(§2) For agonist determination, cells were incubated with sample to induce response. Intermediate dilution of sample stocks was performed to generate 5× sample in assay buffer. About 5 μL of 5× sample was added to cells and incubated at 37° C. for 6 to 16 hours depending on the assay. Vehicle concentration was 1%.
(§3) Assay signal was generated through a single addition of 12.5 or 15 μL (50% v/v) of PathHunter Detection reagent cocktail for agonist and antagonist assays respectively, followed by a one hour incubation at room temperature. For some assays, activity was detected using a high sensitivity detection reagent (PathHunter Flash Kit) to improve assay performance. In these assays, an equal volume of detection reagent (25 or 30 μL) was added to the wells, followed by a one hour incubation at room temperature. Microplates were read following signal generation with a PerkinElmer Envision™ instrument for chemiluminescent signal detection.
(§4) Compound activity was analyzed using CBIS data analysis suite (ChemInnovation, CA). For agonist mode assays, percentage activity was calculated using the following Formula:
(§5) % Activity=100%×(mean RLU of test sample−mean RLU of vehicle control)/(mean MAX RLU control ligand−mean RLU of vehicle control).
(§6) A second cell line has been further engineered to express the IL-2Rα subunit. […] The assay was run in agonist mode to determine the EC50 of each test article, and comparison of dose-response curve profiles between IL2Rα positive and negative cell types allows determination of the contribution of IL2Rα to the observed activity.

[2] = target: T2, IL-2 receptor βγ complex (IL-2Rβ and IL-2Rγ subunits) (Homo sapiens, UniProt P14784+P31785); assay: PathHunter IL-2 Cytokine Receptor assay, agonist mode, βγ cell line; assay type: cell-based; conditions: for EC50: IL2Rα-negative U2OS cell line, 10 kD PEGylated conjugates, * = 30 kD; for βγ/αβγ ratio: ratio of the EC50 values
T2 construct: host or cells: recombinant human U2OS cell line (PathHunter)
T2 sequence (P14784 27-551): T1 sequence (P14784 27-551)
T2 sequence (P31785 23-369): T1 sequence (P31785 23-369)
Method: as §1, §2, §3, §4, §5, §6

[3] = PK study E3826-U1704 in naïve C57BL/6 mice (human IL-2 ELISA of plasma); assay type: in vivo; conditions: for t½: 0.3 mg/kg
Method: (§7) Terminal blood samples were collected via cardiac puncture at the points indicated. […] Plasma and blood cells (in both studies) and tumors in study E3826-U1803 were collected for PK and PD analyses.
Bioanalysis of plasma samples was performed using a qualified human IL-2 ELISA assay (Abcam, Cambridge, UK). Concentrations of Aldesleukin, E62_30kD and P65_30kD and the internal standard in samples derived from plasma were determined using an ELISA assay. […] The PK data were imported into Phoenix WinNonlin v6.4 (Certara/Pharsight, Princeton, N.J.) for analysis. The group mean plasma concentration versus time data were analyzed with noncompartmental methods using an IV bolus administration model.

[4] = test system: pSTAT5 and proliferation in CD8+ T, NK and Treg cells; assay: Pharmacodynamics in peripheral blood compartment (pSTAT5, Ki-67, cell counts), Example 5; assay type: in vivo, C57BL/6 mice; conditions: mice
Excerpt: as §7
STAT5 phosphorylation and induction of cell proliferation (the early molecular marker Ki-67 and cell counts) was used as pharmacodynamics readouts to assess the pharmacological profile of P65_30kD relative to its pharmacokinetics.

[5] = MTD / toxicology study E3826-U1802 in naïve Balb/c mice (hematology, histopathology, organ weight, cytokines); assay type: in vivo; conditions: Balb/c mice
Method: A dose ranging study of P65_30kD was conducted in naïve female Balb/c mice at Crown Biosciences, Inc. (San Diego, Calif.). […] Blood samples were drawn via sub mandibular vein at 8 time points (0.25, 1, 4, 12, 24, 34, 48 & 72 h).
A major of toxicity associated with high-dose aldesleukin is vascular leak syndrome and associated Cytokine Release Syndrome (CRS). […] The analysis performed was hematology, histopathology, organ weight, and cytokine analyses.

[6] = C57BL/6 female mice, single IV bolus 0.3 mg/kg, E62_5 kD from a separate study

Row | Substance | EC50 [1] | EC50 [2] | βγ/αβγ ratio [2] | further results
1 | E62: Table 2: 10 kD PEGylated IL-2 conjugate at site E62 [Compound E62] | 1.5 nM | 3 nM | 2 | –
2 | aldesleukin [reference compound] | – | – | – | AUC0-t [3, 6]: 229 ng·h/mL; AUCINF [3, 6]: 230 ng·h/mL; CL [3, 6]: 21.67 mL/min/kg; Cmax [3, 6]: 884 ng/mL; Tmax [3, 6]: 1.8 min; Vss (distribution volume) [3, 6]: 0.39 L/kg; t½ [3, 6]: 34.4 min; t½ ([3]; C57BL/6 female mice, single IV bolus 0.3 mg/kg, E62_5 kD from a separate study, listed as aldesleukin): 34.2 min; mean plasma concentrations measurable out to (post-dose) ([3]; single IV bolus, 120 h = last measured time point): 4 h; pSTAT5 induction returned to baseline after [4]: 2 h; systemic levels of IFNγ [5]: transient elevation; plasma IL-5 levels ([5]; dose range 0.01-5.0 mg/kg): elevated plasma IL-5 levels starting at 1 mg/kg to 5 mg/kg; hematology, histopathology or body weights relative to vehicle control ([5]; P65_30kD single IV 0.01-5.0 mg/kg, aldesleukin IV BID × 3): Abnormalities were not observed
3 | E68: Table 2: 10 kD PEGylated IL-2 conjugate at site E68 [Compound E68] | 0.0893 nM | 7.7 nM | 86 | –
4 | V69: Table 2: 30 kD PEGylated IL-2 conjugate at site V69 [Compound V69] | 0.083 nM | 9.99 nM | 121 | –
5 | F42: Table 2: 10 kD PEGylated IL-2 conjugate at site F42 [Compound F42] | 0.515 nM | 6.09 nM | 12 | –
6 | Y45: Table 2: 30 kD PEGylated IL-2 conjugate at site Y45 [Compound Y45] | 0.11 nM | 9.06 nM | 83 | –
7 | K43: Table 2: 10 kD PEGylated IL-2 conjugate at site K43 [Compound K43] | 0.131 nM | 9.84 nM | 75 | –
8 | K35: Table 2: 10 kD PEGylated IL-2 conjugate at site K35 [Compound K35] | 0.15 nM | 6.75 nM | 45 | –
9 | R38: Table 2: 10 kD PEGylated IL-2 conjugate at site R38 [Compound R38] | 0.165 nM | 4.16 nM | 25 | –
10 | T41: Table 2: 10 kD PEGylated IL-2 conjugate at site T41 [Compound T41] | 0.0489 nM | 6.37 nM | 130 | –
